Article PMC9325241

Experiments:
[1] = target: recombinant EGFR (human EGFR protein) (human) (UniProt P00533); test: SPR; conditions: bispecific antibody
[2] = target: recombinant PD-L1 (human PD-L1 protein) (human) (UniProt Q9NZQ7); test: SPR; conditions: bispecific antibody
Sequence of UniProt Q9NZQ7 (Q9NZQ7 19-238): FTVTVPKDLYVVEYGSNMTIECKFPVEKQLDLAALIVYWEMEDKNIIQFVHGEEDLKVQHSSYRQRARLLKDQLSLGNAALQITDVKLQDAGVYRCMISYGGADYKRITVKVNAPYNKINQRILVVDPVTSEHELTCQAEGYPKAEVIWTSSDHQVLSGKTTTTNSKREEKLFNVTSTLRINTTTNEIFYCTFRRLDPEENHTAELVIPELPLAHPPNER

Kd [1] [nM] | koff [1] [s⁻¹] | Kd [2] [nM] | koff [2] [s⁻¹] | Substance
0.913 | 0.0007 | 0.000374 | 7.56e-07 | anti-EGFR/PD-L1 BsAb, dual variable domain immunoglobulin (DVD-Ig) symmetric tetravalent format (from UniProt P01857)
56.3 | 0.0295 | 0.0106 | 2.13e-05 | anti-EGFR/PD-L1 BsAb, knob-in-hole (KIH) asymmetric bivalent format (from UniProt P01857)
